This assay has as its target T1, ClpB, wild type (E. coli, UniProt P63284 1-857).
T1 construct: ClpB, E. coli, wild type; also called wt ClpB; wt-ClpB; source: E. coli BB4561, purified as previously described
Kind of assay: co-sedimentation; G6PDH50 aggregates (1 μM) incubated 10 min at 30 °C in refolding buffer with DnaJ, 3.5 μM wt DnaK or variant, with or without 5 μM wt or mutant ClpB, 3 mM ATP with regenerating system, no GrpE; 122,000 x g, 40 min, 4 °C; pellets on SDS-PAGE or NuPAGE, densitometry, controls with native G6PDH subtracted. The note with it: both partners purified.

B1: DnaK_(1–507) (domain or fragment)
chain: not shown
notes: DnaK, E. coli, residues 1-507 (lid deleted); also called Δlid; Δlid-DnaK
Turning to B1, the binding result is “binds”.

The values above are taken from article PMC5895705, “Activation of the DnaK-ClpB Complex is Regulated by the Properties of the Bound Substrate” (Scientific Reports, 2018).
